One block for each molecule: values may come before it.
Tests used:
[1] = target: human BLyS (full length, arginine to histidine at position 132) on CHO-K1 cells (human) (UniProt Q9Y275); assay: flow cytometry, CHO-K1 hBLyS cells, antibody 0 nM
[2] = target: cynomolgus BLyS (full length, arginine to histidine at position 132) on CHO-K1 cells (cynomolgus); assay: flow cytometry, CHO-K1 cynoBLyS cells, antibody 0 nM
[3] = target: human BLyS (full length, arginine to histidine at position 132) on CHO-K1 cells (human) (UniProt Q9Y275); assay: flow cytometry, CHO-K1 hBLyS cells, antibody 0.107 nM
[4] = target: cynomolgus BLyS (full length, arginine to histidine at position 132) on CHO-K1 cells (cynomolgus); assay: flow cytometry, CHO-K1 cynoBLyS cells, antibody 2.67 nM
[5] = target: cynomolgus BLyS (full length, arginine to histidine at position 132) on CHO-K1 cells (cynomolgus); assay: flow cytometry, CHO-K1 cynoBLyS cells, antibody 66.7 nM
[6] = target: biotinylated hBLyS-ECD (human) (UniProt Q9Y275); assay: ELISA, biotinylated hBLyS-ECD captured on streptavidin; antibody 13.3 nM
[7] = target: biotinylated hBLyS-ECD (human) (UniProt Q9Y275); assay: ELISA, biotinylated hBLyS-ECD captured on streptavidin; antibody 66.7 nM
[8] = target: biotinylated hBLyS-ECD (human) (UniProt Q9Y275); assay: ELISA, biotinylated hBLyS-ECD captured on streptavidin; antibody 0 nM (blank)
[9] = target: T1, biotinylated hBLyS-ECD (human, UniProt Q9Y275 134-285, biotinylated with Biotin-X-X-NHS (molar ratio 7:1), sites not stated); assay: ELISA: biotinylated hBLyS-ECD captured on streptavidin, antibody titrated, HRP secondary antibody [label printed at the top of D00004]
T1 construct: The hBLyS-ECD of Embodiment 1 after biotinylation (Embodiment 2); also called biotinylated immunogen; BLyS protein; not shown: His tag of the pCPC vector
Experimental: Streptavidin was first diluted to a final concentration of 1.0 μg/mL with PBS, and then 50 μL of diluted streptavidin per well was aliquoted into 96-well ELISA plate, which was subsequently sealed with plastic film and incubated at 4° C. overnight. On the next day the plate was washed four times with the plate washing buffer [PBS buffer containing 0.05% (v/v) Tween20] and added with the blocking solution [PBS buffer containing 0.05% (v/v) Tween20 and 1% (w/w) BSA] and blocked for 2 hours at 37° C. The blocking solution was removed, the biotinylated hBLyS-ECD prepared in Embodiment 2 was diluted with PBS to a final concentration of 50 ng/mL and then aliquoted into the 96-well ELISA plate at 50 μL per well and incubated for 1 hour at 37° C. After rinsing the plate four times with the plate washing buffer [PBS buffer containing 0.05% (v/v) Tween20], 100 μl of the purified lead antibody harvested in Embodiment 1 and 2 was pipetted into each well. After incubation for 1 hour at 37° C., the plate was rinsed four times with the plate washing buffer [PBS buffer containing 0.05% (v/v) Tween20]. HRP-labeled (horseradish peroxidase) secondary antibody (purchased from Sigma) was added in and incubated at 37° C. for 1 hour. The plate was then rinsed four times with the plate washing buffer [PBS buffer containing 0.05% (v/v) Tween20]. 100 μL of TMB substrate was aliquoted into each well and after incubation for 5 minutes at room temperature, 100 μL of stop solution (1.0 N HCl) was aliquoted into each well. A₄₅₀ₙₘ values were read via an ELISA plate reader (SpectraMax M5e purchased from Molecular Devices) and the results were shown in FIGS. 5A-5B and Table 10.

[10] = target: extracellular domain of human BLyS protein (hBLyS-ECD), His-tagged, Ala134-Leu285 (human, UniProt Q9Y275 134-285); assay: cell-based or functional assay
[11] = target: T2, biotinylated hBLyS-ECD (human, UniProt Q9Y275 134-285, biotinylated with Biotin-X-X-NHS (molar ratio 7:1); sites not stated); assay: ELISA on captured biotinylated hBLyS-ECD; antibody 2.67 nM
T2 construct: also called biotinylated immunogen; biotinylated hBLvS-ECD

[12] = target: T2, biotinylated hBLyS-ECD; assay: ELISA on captured biotinylated hBLyS-ECD; antibody 13.3 nM
[13] = target: T2, biotinylated hBLyS-ECD; assay: ELISA on captured biotinylated hBLyS-ECD; antibody 0.534 nM
[14] = target: T2, biotinylated hBLyS-ECD; assay: ELISA on captured biotinylated hBLyS-ECD; antibody 0.0213 nM
[15] = target: T2, biotinylated hBLyS-ECD; assay: ELISA on captured biotinylated hBLyS-ECD; antibody 0 nM (background)
[16] = target: T2, biotinylated hBLyS-ECD; assay: BAFF R-coated ELISA, biotinylated hBLyS-ECD bound in presence of antibody 0 nM
[17] = target: T2, biotinylated hBLyS-ECD; assay: BAFF R-coated ELISA, biotinylated hBLyS-ECD bound in presence of antibody 0.16 nM
[18] = target: T2, biotinylated hBLyS-ECD; assay: BAFF R-coated ELISA, biotinylated hBLyS-ECD bound in presence of antibody 0.032 nM

Chain of cynomolgus BLyS (full length, arginine to histidine at position 132) on CHO-K1 cells (cynomolgus) (Q9Y275 other isoform, or with tags, fused parts or gaps limits assumed): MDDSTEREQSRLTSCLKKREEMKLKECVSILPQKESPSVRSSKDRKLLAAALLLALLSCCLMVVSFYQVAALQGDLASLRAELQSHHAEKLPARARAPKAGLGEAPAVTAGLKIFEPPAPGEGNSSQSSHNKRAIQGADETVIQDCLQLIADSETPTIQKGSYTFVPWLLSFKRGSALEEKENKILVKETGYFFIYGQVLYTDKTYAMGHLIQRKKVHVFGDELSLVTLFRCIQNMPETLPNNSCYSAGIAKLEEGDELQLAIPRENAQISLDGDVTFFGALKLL
Chain of human BLyS (full length, arginine to histidine at position 132) on CHO-K1 cells (human) (Q9Y275 whole entry R130H): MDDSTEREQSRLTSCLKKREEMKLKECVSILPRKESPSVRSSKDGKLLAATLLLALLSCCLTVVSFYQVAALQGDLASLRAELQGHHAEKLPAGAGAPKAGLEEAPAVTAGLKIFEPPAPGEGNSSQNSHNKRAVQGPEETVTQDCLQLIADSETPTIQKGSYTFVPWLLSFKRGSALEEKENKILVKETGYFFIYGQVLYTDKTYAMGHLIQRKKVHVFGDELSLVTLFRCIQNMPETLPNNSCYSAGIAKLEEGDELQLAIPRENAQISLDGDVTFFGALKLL

MFI [1]: 27.2 MFI | MFI [2]: 20.7 MFI | MFI [3]: 32.9 MFI | MFI [4]: 22.7 MFI | MFI [5]: 44.2 MFI | OD450 nm [6]: 0.102 | OD450 nm [7]: 0.148 | OD450 nm [8]: 0.103
Molecule: hIgG Control (antibody)

MFI [1]: 30.3 MFI | MFI [2]: 19.8 MFI | MFI [3]: 31.6 MFI | MFI [4]: 21.2 MFI | MFI [5]: 21.6 MFI | OD450 nm [6]: 0.0627 | OD450 nm [7]: 0.0708 | OD450 nm [8]: 0.0574
Molecule: mIgG Control (antibody)

OD450 nm (as headed), mouse B lymphocyte proliferation; antibody 0 nM [10]: 4440 | OD450 nm (as headed), mouse B lymphocyte proliferation; antibody 0.000256 nM [10]: 5020 | OD450 nm (as headed), mouse B lymphocyte proliferation; antibody 0.00128 nM [10]: 4870 | OD450 nm (as headed), mouse B lymphocyte proliferation; antibody 0.0064 nM [10]: 5280 | OD450 nm (as headed), mouse B lymphocyte proliferation; antibody 0.032 nM [10]: 4450 | OD450 nm (as headed), mouse B lymphocyte proliferation; antibody 0.16 nM [10]: 3740 | OD450 nm (as headed), mouse B lymphocyte proliferation; antibody 0.8 nM [10]: 1460 | OD450 nm (as headed), mouse B lymphocyte proliferation; antibody 4 nM [10]: 578 | OD450 nm (as headed), mouse B lymphocyte proliferation; antibody 20 nM [10]: 424 | OD450 nm (as headed), mouse B lymphocyte proliferation; antibody 100 nM [10]: 444 | OD450 nm [11]: 3.32 OD450 nm | OD450 nm [12]: 2.34 OD450 nm | OD450 nm [13]: 3.26 OD450 nm | OD450 nm [14]: 0.374 OD450 nm | OD450 nm [15]: 0.165 OD450 nm | OD450 nm [16]: 1.91 OD450 nm | OD450 nm [17]: 1.79 OD450 nm | OD450 nm [18]: 1.84 OD450 nm
B3: c97A3C2H4 (antibody, V domains shown)
VH: EVKLVESGGGLVQPGGSLKLSCAASGFTFSTYTMSWVRQTPEKRLEWVAYISYGGGSTSYPDTVKGRFTISRDNAKNTLYLQMSSLKSEDTAIYYCTRHVTVVENSMDYWGQGTSVTVSS
VL: DILLTQSPDILSVSPGERVSFSCRASQSIGTSIHWYQQRTNGSPRLLIKYVSESFSGTPSRFSGSGSGTAFTLTINSVESEDIADYYCQQTHSWPWTFGGGTKLEIK
notes: also called chimeric antibody c97A3C2H4

The next lines start with the molecule.

B1: 111D10D6G3 (antibody, V domains shown)
VH: QVQLQQPGAELVKPGASVKMSCKASGYTFTRHWITWVKQRPGQGLEWIGDIFPGSGSINYNEKFKSEATLTVEKSSSTAYMQLSSLTSEDSAVYYCARGDVDVWGTGTTVTVSS
VL: DIQMTQSPSSLSASLGERVSLTCRASQEIRGYLSWLQQKPNGTIKRLIYAASTLDSGVPKRFSATRSGSDFSLTISSLESEDFADYYCLQYASYPFTFGSGTKLEIK
notes: Mouse hybridoma antibody purified on Protein G
EC50 (read off the curve) [9]: ~0.2 nM

B2: c8E7D9C7F5 (antibody, V domains shown)
VH: QVQLQQSGVELARPGASVKLSCKASGYTFTSYGISWVKQRTGQALEWIGEIYPRSGNTYYNEKFKGKATLTADKSSSTAYMELRSLTSEDSAVYFCARSGPITTLVATDYGMDYWGQGTSVTVSS
VL: DIVLTQSPASLAVSLGQRATISCRASKSVSTSSYSYMHWYQQKPGQPPKLLIKFASNLESGVPARFSGSGSGTDFTLNIHPVEEEDAATYYCQHSREFPYTFGGGTKLEIK
notes: also called chimeric antibody c8E7D9C7F5
OD450 nm (as headed), mouse B lymphocyte proliferation; antibody 0 nM [10]: 4750 | OD450 nm (as headed), mouse B lymphocyte proliferation; antibody 0.000256 nM [10]: 4970 | OD450 nm (as headed), mouse B lymphocyte proliferation; antibody 0.00128 nM [10]: 5150 | OD450 nm (as headed), mouse B lymphocyte proliferation; antibody 0.0064 nM [10]: 5280 | OD450 nm (as headed), mouse B lymphocyte proliferation; antibody 0.032 nM [10]: 4620 | OD450 nm (as headed), mouse B lymphocyte proliferation; antibody 0.16 nM [10]: 4110 | OD450 nm (as headed), mouse B lymphocyte proliferation; antibody 0.8 nM [10]: 2070 | OD450 nm (as headed), mouse B lymphocyte proliferation; antibody 4 nM [10]: 488 | OD450 nm (as headed), mouse B lymphocyte proliferation; antibody 20 nM [10]: 367 | OD450 nm (as headed), mouse B lymphocyte proliferation; antibody 100 nM [10]: 345 | OD450 nm [11]: 3.24 OD450 nm | OD450 nm [12]: 2.37 OD450 nm | OD450 nm [13]: 3.07 OD450 nm | OD450 nm [14]: 0.508 OD450 nm | OD450 nm [15]: 0.322 OD450 nm | OD450 nm [16]: 1.95 OD450 nm | OD450 nm [17]: 1.85 OD450 nm | OD450 nm [18]: 1.97 OD450 nm

B4: 97A3C2H4 (antibody, V domains shown)
VH: B3 VH
VL: B3 VL
notes: as for B1
EC50 (read off the curve) [9]: ~0.2 nM

— patent US20210347873A1 (SHANGHAI PHARMAEXPLORER, published 2021)
